{"source": "patent US20220175814A1", "key": {"[1]": {"biological_target": "PD-L1 on RENCA HER2 cells (mouse) (UniProt Q9EP73)", "sequence (Q9EP73 19-290)": "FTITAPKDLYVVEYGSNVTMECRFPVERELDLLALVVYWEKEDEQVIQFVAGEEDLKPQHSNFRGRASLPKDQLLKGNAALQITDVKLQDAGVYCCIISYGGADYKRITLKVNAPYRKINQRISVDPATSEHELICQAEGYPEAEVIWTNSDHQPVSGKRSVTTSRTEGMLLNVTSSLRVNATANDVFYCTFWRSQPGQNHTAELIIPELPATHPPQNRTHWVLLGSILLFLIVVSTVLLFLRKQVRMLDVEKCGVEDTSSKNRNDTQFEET", "test": "flow cytometry, untreated RENCA HER2 cells stained with PE anti-mouse PD-L1 10F.9G2, 1 h"}, "[2]": {"biological_target": "PD-L1 on RENCA HER2 cells (mouse) (UniProt Q9EP73)", "test": "flow cytometry, RENCA HER2 cells treated 24 h with 1 microgram/ml polyIC/PPHA, stained with PE anti-mouse PD-L1 10F.9G2, 1 h"}, "PD-L1 on A431 cells [3]": {"biological_target": "PD-L1 on A431 cells (UniProt Q9NZQ7)", "sequence (Q9NZQ7 19-290 limits assumed)": "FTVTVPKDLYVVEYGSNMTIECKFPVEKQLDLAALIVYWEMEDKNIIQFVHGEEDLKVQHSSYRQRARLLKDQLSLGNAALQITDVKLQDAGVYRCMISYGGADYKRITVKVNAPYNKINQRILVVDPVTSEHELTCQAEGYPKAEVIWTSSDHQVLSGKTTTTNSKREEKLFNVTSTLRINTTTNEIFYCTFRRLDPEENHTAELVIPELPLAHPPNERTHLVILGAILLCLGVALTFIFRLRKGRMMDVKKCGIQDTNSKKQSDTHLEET", "test": "flow cytometry, untreated control A431 cells, stained 40 min on ice"}, "PD-L1 on A431 cells [4]": {"biological_target": "PD-L1 on A431 cells (UniProt Q9NZQ7)", "test": "flow cytometry, A431 cells treated 5 h with 0.125 µg/ml PEI-PEG-EGF/polyIC, stained 40 min on ice"}, "PD-L1 on A431 cells [5]": {"biological_target": "PD-L1 on A431 cells (UniProt Q9NZQ7)", "test": "flow cytometry on A431 cells, negative control"}, "[6]": {"biological_target": "PD-L1 on RENCA HER2 cells (mouse) (UniProt Q9EP73)", "test": "flow cytometry on RENCA HER2 cells, isotype control, 1 h"}}}
{"substance": "phycoerythrin (PE)-conjugated anti-mouse PD-L1 antibody CD274 (PD-L1, B7-H1) [10F.9G2] Tonbo cat #50-1243-U025", "values": [{"measurement": "median PE-A (Calculated raw values of medians using x-axis channel(s): PE-A)", "setting": "[1]", "value": 163}, {"measurement": "median PE-A (Calculated raw values of medians using x-axis channel(s): PE-A)", "setting": "[2]", "value": 322}]}
{"substance": "PD-L1-PE labelled antibody (Biolegend, cat #393607)", "values": [{"measurement": "MFI", "setting": "PD-L1 on A431 cells [3]", "value": 431}, {"measurement": "MFI", "setting": "PD-L1 on A431 cells [4]", "value": 751}]}
{"substance": "Isotype control (Example 1, A431 staining) (antibody)", "values": [{"measurement": "MFI", "setting": "PD-L1 on A431 cells [5]", "value": 13}]}
{"substance": "Isotype control (Example 6, RENCA HER2 staining) (antibody)", "values": [{"measurement": "median PE-A (Calculated raw values of medians using x-axis channel(s): PE-A)", "setting": "[6]", "value": 3.19}]}
